This note sets out measurements from article doi:10.1101/2024.05.16.594476 (bioRxiv, 2024).

B1: Mtb RNAP β subunit (natural protein)
chain: MLEGCILADSRQSKTAASPSPSRPQSSSNNSVPGAPNRVSFAKLREPLEVPGLLDVQTDSFEWLIGSPRWRESAAERGDVNPVGGLEEVLYELSPIEDFSGSMSLSFSDPRFDDVKAPVDECKDKDMTYAAPLFVTAEFINNNTGEIKSQTVFMGDFPMMTEKGTFIINGTERVVVSQLVRSPGVYFDETIDKSTDKTLHSVKVIPSRGAWLEFDVDKRDTVGVRIDRKRRQPVTVLLKALGWTSEQIVERFGFSEIMRSTLEKDNTVGTDEALLDIYRKLRPGEPPTKESAQTLLENLFFKEKRYDLARVGRYKVNKKLGLHVGEPITSSTLTEEDVVATIEYLVRLHEGQTTMTVPGGVEVPVETDDIDHFGNRRLRTVGELIQNQIRVGMSRMERVVRERMTTQDVEAITPQTLINIRPVVAAIKEFFGTSQLSQFMDQNNPLSGLTHKRRLSALGPGGLSRERAGLEVRDVHPSHYGRMCPIETPEGPNIGLIGSLSVYARVNPFGFIETPYRKVVDGVVSDEIVYLTADEEDRHVVAQANSPIDADGRFVEPRVLVRRKAGEVEYVPSSEVDYMDVSPRQMVSVATAMIPFLEHDDANRALMGANMQRQAVPLVRSEAPLVGTGMELRAAIDAGDVVVAEESGVIEEVSADYITVMHDNGTRRTYRMRKFARSNHGTCANQCPIVDAGDRVEAGQVIADGPCTDDGEMALGKNLLVAIMPWEGHNYEDAIILSNRLVEEDVLTSIHIEEHEIDARDTKLGAEEITRDIPNISDEVLADLDERGIVRIGAEVRDGDILVGKVTPKGETELTPEERLLRAIFGEKAREVRDTSLKVPHGESGKVIGIRVFSREDEDELPAGVNELVRVYVAQKRKISDGDKLAGRHGNKGVIGKILPVEDMPFLADGTPVDIILNTHGVPRRMNIGQILETHLGWCAHSGWKVDAAKGVPDWAARLPDELLEAQPNAIVSTPVFDGAQEAELQGLLSCTLPNRDGDVLVDADGKAMLFDGRSGEPFPYPVTVGYMYIMKLHHLVDDKIHARSTGPYSMITQQPLGGKAQFGGQRFGEMECWAMQAYGAAYTLQELLTIKSDDTVGRVKVYEAIVKGENIPEPGIPESFKVLLKELQSLCLNVEVLSSDGAAIELREGEDEDLERAAANLGINLSRNESASVEDLA
B2: Mtb RNAP σ^A (natural protein)
chain: MAATKASTATDEPVKRTATKSPAASASGAKTGAKRTAAKSASGSPPAKRATKPAARSVKPASAPQDTTTSTIPKRKTRAAAKSAAAKAPSARGHATKPRAPKDAQHEAATDPEDALDSVEELDAEPDLDVEPGEDLDLDAADLNLDDLEDDVAPDADDDLDSGDDEDHEDLEAEAAVAPGQTADDDEEIAEPTEKDKASGDFVWDEDESEALRQARKDAELTASADSVRAYLKQIGKVALLNAEEEVELAKRIEAGLYATQLMTELSERGEKLPAAQRRDMMWICRDGDRAKNHLLEANLRLVVSLAKRYTGRGMAFLDLIQEGNLGLIRAVEKFDYTKGYKFSTYATWWIRQAITRAMADQARTIRIPVHMVEVINKLGRIQRELLQDLGREPTPEELAKEMDITPEKVLEIQQYAREPISLDQTIGDEGDSQLGDFIEDSEAVVAVDAVSFTLLQDQLQSVLDTLSEREAGVVRLRFGLTDGQPRTLDEIGQVYGVTRERIRQIESKTMSKLRHPSRSQVLRDYLD
B3: Mtb RNAP α subunit (natural protein)
chain: MLISQRPTLSEDVLTDNRSQFVIEPLEPGFGYTLGNSLRRTLLSSIPGAAVTSIRIDGVLHEFTTVPGVKEDVTEIILNLKSLVVSSEEDEPVTMYLRKQGPGEVTAGDIVPPAGVTVHNPGMHIATLNDKGKLEVELVVERGRGYVPAVQNRASGAEIGRIPVDSIYSPVLKVTYKVDATRVEQRTDFDKLILDVETKNSISPRDALASAGKTLVELFGLARELNVEAEGIEIGPSPAEADHIASFALPIDDLDLTVRSYNCLKREGVHTVGELVARTESDLLDIRNFGQKSIDEVKIKLHQLGLSLKDSPPSFDPSEVAGYDVATGTWSTEGAYDEQDYAETEQL

In experiment [1] the target is T1, Mtb PhoP, phosphorylated with acetyl phosphate (AcP) (Mycobacterium tuberculosis, UniProt P71814 1-247). In words: […].
In the experiment “Mtb RNAP σ^A” the target is B2. The experiment is described as follows: cryo-EM structure.
For experiment [2], the target named is T1, Mtb PhoP, phosphorylated with acetyl …. In words: cryo-EM structure.
In the experiment “Mtb RNAP α subunit” the target is B3. The experiment is described as follows: cryo-EM structure.
The target of the experiment “Mtb RNAP β subunit” is B1. The experiment is described as follows: cryo-EM structure.

Turning to B1, the binding result in experiment [1] is “binds”. For B2, the binding result in experiment [1] is recorded as “binds”. Regarding B3, in experiment [1], the binding result is reported as “binds”.

B4: Mtb GlnR, the nitrogen metabolism regulator (natural protein)
chain: MLELLLLTSELYPDPVLPALSLLPHTVRTAPAEASSLLEAGNADAVLVDARNDLSSGRGLCRLLSSTGRSIPVLAVVSEGGLVAVSADWGLDEILLLSTGPAEIDARLRLVVGRRGDLADQESLGKVSLGELVIDEGTYTARLRGRPLDLTYKEFELLKYLAQHAGRVFTRAQLLHEVWGYDFFGGTRTVDVHVRRLRAKLGPEHEALIGTVRNVGYKAVRPARGRPPAADPDDEDADPGRDGMQEPLVDPLRSQ
Turning to B4, the binding result (with Mtb RNAP σ^A; in experiment [2]; in the experiment with Mtb RNAP α subunit; with Mtb RNAP β subunit) was “binds” in each case.
